Experimental data as given in article PMC6591170.

Target: human alpha-thrombin (Homo sapiens, UniProt P00734;P00734 315-363;364-622)
Experiment: ITC; ITC in PBS (10 mM phosphate, 2.7 mM KCl, 137 mM NaCl), pH 7.4, 22 °C; ODN 25 or 100 µM into thrombin 2.5 or 10 µM

Row | Binder | Kd [nM]
1 | GGTTGGTGTGGTTGG (structured_DNA) [TBA] | 8
2 | AA (structured_DNA, 3'-3' phosphodiester inversion joins the two listed segments covalently (both written 5' to 3'); one molecule, not a duplex) DNA 1: GGTTGGTGTGGTTGGA DNA 2: GGTTGGTGTGGTTGGA | 10
